Laboratory results: PMC7549315

Target: GFP-SAPwt (SAP domain of SAF-A) (UniProt Q00839 8-42)
Assay: EMSA

Sequence of GFP-SAPwt (SAP domain of SAF-A) (Q00839 8-42): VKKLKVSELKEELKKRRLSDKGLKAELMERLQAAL

B1: AT-rich SAR DNA (dsDNA)
DNA 1: AATTCAGAAAATAATAAAATAAAACTAGCTATTTTATATTTTTTC
DNA 2: GAAAAAATATAAAATAGCTAGTTTTATTTTATTATTTTCTGAATT
Kd: 16.5 µM
